The results in this text go back to PMC12948190, “Microfluidic Electrochemical Biosensor for the Detection of Platelet Factor 4 Antibody‐Mediated Thrombotic Disorders” (Advanced Science, 2025).

The data set deals with the molecule itself. The data set can be described thus: cross-linking + AUC; PF4 cross-linked with 1 mg/mL EDC (equal v:v) in 15 mM MES pH 8.0, 6 h, ambient temperature, stopped with 1 M Tris pH 7.4; oligomeric species analysed by SDS-PAGE and ultracentrifugation.

B1: cross-linked platelet factor 4 (natural protein, human, UniProt P02776 32-101, looked up)
chain: EAEEDGDLQCLCVKTTSQVRPRHITSLEVIKAGPHCPTAQLIATLKNGRKICLDLQAPLYKKIIKKLLES
modifications: chemically cross-linked with 1-ethyl-3-(3-dimethylaminopropyl) carbodiimide (EDC); cross-linked residues not stated
notes: Platelet factor 4 (PF4, CXCL4), human, recombinant; The bought recombinant protein is probably the mature 70-residue chemokine (surmised); also called c-PF4; cross-linked PF4; source: bought: Protein Foundry LLC (recombinant PF4, Human CXCL4); cross-linked with EDC
Consider B1, for which the stoichiometry N (as a rule, a count of units in the complex or per binding partner) is 4.
